Where “and” joins values, the source holds several entries; their conditions need not be identical. Equal entries are not always repeated.
Experiments:
[1] = target: HML2 CA^rec (consensus HML2 capsid protein, P1-Q246) (human endogenous retrovirus HML2 (HERV-K), consensus); test: cryo-EM structure; single-particle reconstruction of particles assembled in vitro at 1.4 M NaCl, 10 mg/mL, 4 °C, 1 h; T = 1, D5, D6 and T = 3 shells
[2] = target: HML2 CA^rec C-terminal domain (CA^rec-CTD, P156-Q246) (human endogenous retrovirus HML2 (HERV-K), consensus); test: AUC; sedimentation equilibrium, 20 mM Tris-HCl pH 8, 150 mM NaCl, 0.5 mM TCEP; 50-200 µM protein, three speeds; global fit to a monomer-dimer equilibrium (monomer to dimer); MSTAR analysis at 200 µM
[3] = target: HML2 CA^rec C-terminal domain (CA^rec-CTD, P156-Q246) (human endogenous retrovirus HML2 (HERV-K), consensus); test: solution NMR structure (inter-molecular filtered NOEs); 298 K, 20 mM Tris-HCl, 50 mM NaCl, 0.5 mM TCEP, pH 7.0; asymmetrically labelled dimer from equimolar unlabelled and 13C/15N-labelled CA^rec-CTD, 2 mM total protein

| Substance | stoichiometry N [1] | Ka [2] [M⁻¹] | stoichiometry N [3] |
| --- | --- | --- | --- |
| HML2 CA^rec (consensus HML2 capsid protein, P1-Q246) (natural protein) | 5 and 6 |  |  |
| HML2 CA^rec C-terminal domain (CA^rec-CTD, P156-Q246) (domain or fragment) |  | 3600 | 2 |

From paper PMC6925226
